Reference: patent US20150203577A1 (Chugai, published 2015)
Numbering of substitutions follows the chain as printed. “And” between values parts separate entries of the source, which are not always exact repeats. Equal entries are not always repeated.

T1: mouse FcγRIII extracellular domain, C-terminal His tag (mouse, UniProt P08508 31-215)
T1 construct: Whole entry named; also called mFcγRIII; mFcgRIII
T1 chain: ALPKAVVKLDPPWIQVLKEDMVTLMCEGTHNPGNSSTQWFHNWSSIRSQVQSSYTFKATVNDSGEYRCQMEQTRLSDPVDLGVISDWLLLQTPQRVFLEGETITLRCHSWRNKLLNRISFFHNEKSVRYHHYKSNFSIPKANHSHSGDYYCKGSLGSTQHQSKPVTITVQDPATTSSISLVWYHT

T2: mouse FcγRII extracellular domain, C-terminal His tag (mouse, UniProt P08101 30-210)
T2 construct: Whole entry named; also called mFcγRII; mFcgRII
T2 sequence: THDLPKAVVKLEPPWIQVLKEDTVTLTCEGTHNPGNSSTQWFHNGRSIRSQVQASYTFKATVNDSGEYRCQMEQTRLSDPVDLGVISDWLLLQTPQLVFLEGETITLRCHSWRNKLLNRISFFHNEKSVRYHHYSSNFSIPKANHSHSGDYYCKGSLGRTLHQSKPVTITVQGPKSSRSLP

T3: mouse FcγRIII extracellular domain, C-terminally His-tagged (mouse, UniProt P08508 31-215)
T3 construct: the whole entry is named; also called mFcγRIII; mFcgRIII
T3 chain: T1 chain

T4: mouse FcγRII extracellular domain, C-terminally His-tagged (mouse, UniProt P08101 30-210)
T4 construct: the whole entry is named; also called mFcγRII; mFcgRII
T4 sequence: T2 sequence

T5: mouse FcγRIII (mouse, UniProt P08508 31-215)
T5 construct: Extracellular domain with C-terminal His tag, made in FreeStyle 293 cells; also called mFcγRIII; mFcgRIII
T5 chain: T1 chain

T6: mouse FcγRII (mouse, UniProt P08101 30-210)
T6 construct: Extracellular domain with C-terminal His tag, made in FreeStyle 293 cells; also called mFcγRII; mFcgRII
T6 sequence: T2 sequence

B1: H237-MB678/MRAL-k0 (antibody)
heavy: QVQLQESGPGLVKPSETLSLTCAVSGHSISHDHAWSWVRQPPGEGLEWIGFISYSGITNYNPSLQGRVTISRDNSKNTLYLQMNSLRAEDTAVYYCARSLARTTAMDYWGEGTLVTVSSAKTTPPSVYPLAPGSAAQTNSMVTLGCLVKGYFPEPVTVTWNSGSLSSGVHTFPAVLQSDLYTLSSSVTVPSSTWPSETVTCNVAHPASSTKVDKKIVPRDCGCKPCICEVKEVEDVFIFPPKPKDVLTITLTPKVTCVVVDISKDDPEVQFSWFVDDVEVHTAQTQPREEQFNSTFRSVSELPIMHQDWLNGKEFKCRVNSAAFPAPIEKTISKTKGRPKAPQVYTIPPPKEQMAKDKVSLTCMITDFFPEDITVEWQWNGQPAENYKNTQPIMDTDGSYFVYSKLNVQKSNWEAGNTFTCSVLHEGLHNHHTEKSLSHSPGK
light: not shown
notes: copies: 2 + 2
B2: H237-MB614/MRAL-k0 (antibody, mouse IgG1, kappa)
heavy: B1 heavy with E229T, K231P, V233E
light: not shown
notes: copies: 2 + 2
B3: H237-MB613/MRAL-k0 (antibody, mouse IgG1, kappa)
heavy: B1 heavy with E229T, K231P, E234D, D235E, S263M
light: not shown
notes: copies: 2 + 2
B4: H237-MB611/MRAL-k0 (antibody, mouse IgG1, kappa)
heavy: B1 heavy with E229T, K231P, V233E, E234D, D235E
light: not shown
notes: copies: 2 + 2
B5: H237-MB620/MRAL-k0 (antibody, mouse IgG1, kappa)
heavy: B1 heavy with E229T, K231P, E234D, S263M
light: not shown
notes: copies: 2 + 2
B6: H237-MB617/MRAL-k0 (antibody, mouse IgG1, kappa)
heavy: B1 heavy with E229T, K231P, V233E, E234S, F237D
light: not shown
notes: copies: 2 + 2
B7: H237-MB684/MRAL-k0 (antibody)
heavy: B1 heavy with E229Q, V230P
light: not shown
notes: copies: 2 + 2
B8: H237-MB621/MRAL-k0 (antibody, mouse IgG1, kappa)
heavy: B1 heavy with E229T, K231P, E234D, D235E
light: not shown
notes: copies: 2 + 2
B9: H237-MB619/MRAL-k0 (antibody, mouse IgG1, kappa)
heavy: B1 heavy with E229T, K231P, E234D, F237D
light: not shown
notes: copies: 2 + 2
B10: H237-MB683/MRAL-k0 (antibody)
heavy: B1 heavy with V230T
light: not shown
notes: copies: 2 + 2
B11: H237-MB680/MRAL-k0 (antibody)
heavy: B1 heavy with V230N
light: not shown
notes: copies: 2 + 2
B12: H237-MB615/MRAL-k0 (antibody, mouse IgG1, kappa)
heavy: B1 heavy with E229T, K231P, F237D
light: not shown
notes: copies: 2 + 2
B13: H237-MB616/MRAL-k0 (antibody, mouse IgG1, kappa)
heavy: B1 heavy with E229T, K231P, S263M
light: not shown
notes: copies: 2 + 2
B14: H237-MB622/MRAL-k0 (antibody, mouse IgG1, kappa)
heavy: B1 heavy with E229T, K231P, E234D
light: not shown
notes: copies: 2 + 2
B15: H237-MB676/MRAL-k0 (antibody)
heavy: B1 heavy with V230P, K231N, D235K
light: not shown
notes: copies: 2 + 2
B16: H237-MB612/MRAL-k0 (antibody, mouse IgG1, kappa)
heavy: B1 heavy with E229T, K231P, E234D, D235E, F237D
light: not shown
notes: copies: 2 + 2
B17: H237-MB618/MRAL-k0 (antibody, mouse IgG1, kappa)
heavy: B1 heavy with E229T, K231P, V233E, E234D
light: not shown
notes: copies: 2 + 2
B18: H237-MB681/MRAL-k0 (antibody)
heavy: B1 heavy with V230P
light: not shown
notes: copies: 2 + 2
B19: H237-MB679/MRAL-k0 (antibody)
heavy: B1 heavy with V230D
light: not shown
notes: copies: 2 + 2
B20: H237-MB682/MRAL-k0 (antibody)
heavy: B1 heavy with V230P
light: not shown
notes: copies: 2 + 2
B21: H237-MB623/MRAL-k0 (antibody, mouse IgG1, kappa)
heavy: B1 heavy with V230A, K231Y, D235L
light: not shown
notes: copies: 2 + 2
B22: H237-MB628/MRAL-k0 (antibody, mouse IgG1, kappa)
heavy: B1 heavy with V230P, K231A, D235L
light: not shown
notes: copies: 2 + 2
B23: H237-MB633/MRAL-k0 (antibody, mouse IgG1, kappa)
heavy: B1 heavy with V230D, K231Y, D235N
light: not shown
notes: copies: 2 + 2
B24: H237-MB625/MRAL-k0 (antibody, mouse IgG1, kappa)
heavy: B1 heavy with V230N, K231Y, D235L
light: not shown
notes: copies: 2 + 2
B25: H237-MB627/MRAL-k0 (antibody, mouse IgG1, kappa)
heavy: B1 heavy with K231Y, D235L
light: not shown
notes: copies: 2 + 2
B26: H237-MB629/MRAL-k0 (antibody, mouse IgG1, kappa)
heavy: B1 heavy with E229I, V230P, K231A, D235L
light: not shown
notes: copies: 2 + 2
B27: H237-MB630/MRAL-k0 (antibody, mouse IgG1, kappa)
heavy: B1 heavy with V230P, K231N, D235L
light: not shown
notes: copies: 2 + 2
B28: H237-MB626/MRAL-k0 (antibody, mouse IgG1, kappa)
heavy: B1 heavy with V230T, K231Y, D235L
light: not shown
notes: copies: 2 + 2
B29: H237-MB624/MRAL-k0 (antibody, mouse IgG1, kappa)
heavy: B1 heavy with V230D, K231Y, D235L
light: not shown
notes: copies: 2 + 2
B30: H237-MB631/MRAL-k0 (antibody, mouse IgG1, kappa)
heavy: B1 heavy with E229Q, V230P, K231N, D235L
light: not shown
notes: copies: 2 + 2
B31: H237-MB632/MRAL-k0 (antibody, mouse IgG1, kappa)
heavy: B1 heavy with V230A, K231Y, D235N
light: not shown
notes: copies: 2 + 2
B32: H237-MB645/MRAL-k0 (antibody, mouse IgG1, kappa)
heavy: B1 heavy with K231Y, D235Y
light: not shown
notes: copies: 2 + 2
B33: H237-MB594/MRAL-k0 (antibody, mouse IgG1, kappa)
heavy: B1 heavy with K231P, V233E, D235S
light: not shown
notes: copies: 2 + 2

Target: T1, mouse FcγRIII extracellular domain, …
Test: SPR (Biacore T200); KD of H237-mIgG1/MRAL-k0 / KD of variant

Row | relative mFcγRIII-binding activity (mIgG1 = 1) [fold] | Binder
1 | 2.01 | B1
2 | 0.84 | B2
3 | 0.06 | B3
4 | 0.09 | B4
5 | 0.07 | B5
6 | 0.15 | B6
7 | 1.02 | B7
8 | 0.23 | B8
9 | 0.16 | B9
10 | 0.9 | B10
11 | 1.75 | B11
12 | 0.14 | B12
13 | 0.57 | B13
14 | 0.4 | B14
15 | 0.12 | B15
16 | 0.3 | B16
17 | 0.13 | B17
18 | 1.83 | B18
19 | 1.68 | B19
20 | 2.14 | B20

Each binder was assayed against T2, mouse FcγRII extracellular domain, … in the same assay as above.

Row | relative mFcγRII-binding activity (mIgG1 = 1) [fold] | Binder
21 | 8.03 | B1
22 | 10.9 | B2
23 | 0.24 | B3
24 | 1.11 | B4
25 | 0.23 | B5
26 | 0.84 | B6
27 | 5.37 | B7
28 | 3.15 | B8
29 | 0.62 | B9
30 | 7.7 | B10
31 | 8.97 | B11
32 | 0.59 | B12
33 | 4.06 | B13
34 | 3.83 | B14
35 | 0.22 | B15
36 | 0.81 | B16
37 | 1.63 | B17
38 | 13.9 | B18
39 | 7.57 | B19
40 | 14 | B20

Target: T3, mouse FcγRIII extracellular domain, …
Test: SPR Biacore T200, KD ratio
Description: (§1) Each altered antibody was analyzed for its interaction with each Fcγ receptor prepared above using Biacore T100 (GE Healthcare Japan Corp.), Biacore T200 (GE Healthcare Japan Corp.), Biacore A100, or Biacore 4000. The running buffer used was HBS-EP+ (GE Healthcare Japan Corp.). The assay temperature was set to 25° C. The sensor chips used were chips prepared by immobilizing Protein L (ACTIGEN or BioVision) onto Series S Sensor Chip CM5 (GE Healthcare Japan Corp.) or Series S Sensor Chip CM4 (GE Healthcare Japan Corp.) by the amine coupling method.
(§2) In order to calculate the KD value of each altered antibody for FcγR, kinetic analysis was conducted according to the following method: first, the antibody of interest was captured onto any of these chips and allowed to interact with mFcγR diluted with a running buffer. For the obtained sensorgram, the assay results were globally fit into the 1:1 Langmuir binding model using Biacore Evaluation Software to calculate an association rate constant ka (L/mol/s) and a dissociation rate constant kd (1/s). From these values, the dissociation constant KD (mol/L) was calculated.

Row | relative mFcγRIII-binding activity (mIgG1 = 1) [fold] | Binder
41 | 0.09 | B21
42 | 0.06 | B22
43 | 0.17 | B23
44 | 0.12 | B24
45 | 0.09 | B25
46 | 0.04 | B26
47 | 0.25 | B27
48 | 0.12 | B28
49 | 0.1 | B29
50 | 0.28 | B30
51 | 0.18 | B31

These binders were tested against T4, mouse FcγRII extracellular domain, … (assay: SPR Biacore T200, KD ratio).
Description: as §1, §2

Row | relative mFcγRII-binding activity (mIgG1 = 1) [fold] | Binder
52 | 0.53 | B21
53 | 2.2 | B22
54 | 2.77 | B23
55 | 0.67 | B24
56 | 0.32 | B25
57 | 0.38 | B26
58 | 14.3 | B27
59 | 0.81 | B28
60 | 0.8 | B29
61 | 4.29 | B30
62 | 3.64 | B31

Target: T5, mouse FcγRIII
Test: SPR (Biacore), antibody captured on Protein L
Description: as §1, §2

Row | Kd | Binder
63 | 1420 nM and 2360 nM | B32
64 | 3230 nM and 9030 nM | B33

What follows are binders tested against T6, mouse FcγRII (assay: SPR (Biacore), antibody captured on Protein L).
Description: as §1, §2

Row | Kd | Binder
65 | 180 nM and 307 nM | B32
66 | 115 nM and 250 nM | B33
